From patent CN117736312A (SHANGHAI BOVAX BIOLOGICAL SCIENCE & TECH CO LTD, dated 2024) come the findings set out here.

Common to all, as to test: sandwich ELISA (rabbit anti-L1 capture)
(ELISA stands for enzyme-linked immunosorbent assay.)

In one experiment the target is T1, HPV6L1 (human papillomavirus type 6, UniProt P69899 1-500).
T1 construct: also called HPV 6 L1原液
T1 sequence: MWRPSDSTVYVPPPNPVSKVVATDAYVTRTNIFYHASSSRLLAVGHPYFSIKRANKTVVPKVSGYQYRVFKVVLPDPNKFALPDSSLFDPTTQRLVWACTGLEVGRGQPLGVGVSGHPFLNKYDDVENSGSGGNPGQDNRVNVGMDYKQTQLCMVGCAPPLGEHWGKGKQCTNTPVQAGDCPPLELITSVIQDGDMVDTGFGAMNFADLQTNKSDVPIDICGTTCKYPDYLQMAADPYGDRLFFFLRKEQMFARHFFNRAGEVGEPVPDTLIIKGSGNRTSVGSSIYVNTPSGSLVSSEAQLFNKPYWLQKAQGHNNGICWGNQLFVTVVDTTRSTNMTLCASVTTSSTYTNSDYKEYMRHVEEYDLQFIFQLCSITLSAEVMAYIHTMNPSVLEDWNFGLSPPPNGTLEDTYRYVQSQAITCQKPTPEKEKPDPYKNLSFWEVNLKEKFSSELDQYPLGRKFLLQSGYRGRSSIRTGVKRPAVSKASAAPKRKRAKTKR

A further experiment concerns the target T2, HPV31L1 (human papillomavirus type 31, UniProt P17388 1-504).
T2 sequence: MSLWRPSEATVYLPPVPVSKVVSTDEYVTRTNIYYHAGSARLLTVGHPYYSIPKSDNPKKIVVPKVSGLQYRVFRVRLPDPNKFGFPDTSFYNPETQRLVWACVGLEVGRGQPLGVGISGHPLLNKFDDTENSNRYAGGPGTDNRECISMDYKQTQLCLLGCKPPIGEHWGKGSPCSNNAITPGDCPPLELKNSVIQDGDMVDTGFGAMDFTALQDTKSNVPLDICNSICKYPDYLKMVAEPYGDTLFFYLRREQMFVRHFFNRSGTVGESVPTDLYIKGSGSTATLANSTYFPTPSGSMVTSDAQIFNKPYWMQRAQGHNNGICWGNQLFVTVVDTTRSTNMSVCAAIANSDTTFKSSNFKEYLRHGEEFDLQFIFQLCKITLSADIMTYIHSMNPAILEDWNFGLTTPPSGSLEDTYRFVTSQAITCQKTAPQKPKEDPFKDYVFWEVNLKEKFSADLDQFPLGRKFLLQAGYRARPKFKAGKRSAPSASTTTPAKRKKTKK

In another experiment the target is T3, HPV56L1 (human papillomavirus type 56, UniProt P36743 36-534).
T3 sequence: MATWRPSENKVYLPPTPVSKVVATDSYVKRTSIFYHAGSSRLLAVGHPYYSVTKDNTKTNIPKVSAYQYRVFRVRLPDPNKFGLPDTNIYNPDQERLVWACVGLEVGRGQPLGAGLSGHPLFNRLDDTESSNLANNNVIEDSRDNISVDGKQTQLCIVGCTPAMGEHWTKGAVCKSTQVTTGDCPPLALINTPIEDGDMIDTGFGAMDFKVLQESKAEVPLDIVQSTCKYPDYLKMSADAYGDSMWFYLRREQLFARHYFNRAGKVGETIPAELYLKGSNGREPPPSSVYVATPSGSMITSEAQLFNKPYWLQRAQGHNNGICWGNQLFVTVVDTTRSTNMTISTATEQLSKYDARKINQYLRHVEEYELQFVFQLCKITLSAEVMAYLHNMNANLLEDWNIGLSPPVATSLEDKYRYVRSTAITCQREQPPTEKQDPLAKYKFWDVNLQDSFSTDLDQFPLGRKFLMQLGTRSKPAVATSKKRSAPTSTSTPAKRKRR

In another experiment the target is T4, HPV11L1 (human papillomavirus type 11, UniProt P04012 1-501).
T4 sequence: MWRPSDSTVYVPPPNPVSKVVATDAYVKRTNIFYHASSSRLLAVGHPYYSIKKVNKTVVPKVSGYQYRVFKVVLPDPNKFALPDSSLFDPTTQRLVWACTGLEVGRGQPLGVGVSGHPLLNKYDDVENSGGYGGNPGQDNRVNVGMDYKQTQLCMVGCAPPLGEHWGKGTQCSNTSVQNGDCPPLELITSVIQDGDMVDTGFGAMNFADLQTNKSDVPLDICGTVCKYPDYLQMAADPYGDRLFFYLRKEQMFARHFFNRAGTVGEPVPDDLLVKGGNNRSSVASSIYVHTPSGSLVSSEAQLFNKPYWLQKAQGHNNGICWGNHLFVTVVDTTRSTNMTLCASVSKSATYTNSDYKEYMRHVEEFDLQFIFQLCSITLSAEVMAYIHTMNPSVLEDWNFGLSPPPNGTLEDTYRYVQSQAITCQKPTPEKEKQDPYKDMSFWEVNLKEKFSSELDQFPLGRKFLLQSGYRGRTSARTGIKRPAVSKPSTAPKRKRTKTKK

The target in the next experiment is T5, HPV45L1 (human papillomavirus type 45, UniProt P36741 30-539).
T5 sequence: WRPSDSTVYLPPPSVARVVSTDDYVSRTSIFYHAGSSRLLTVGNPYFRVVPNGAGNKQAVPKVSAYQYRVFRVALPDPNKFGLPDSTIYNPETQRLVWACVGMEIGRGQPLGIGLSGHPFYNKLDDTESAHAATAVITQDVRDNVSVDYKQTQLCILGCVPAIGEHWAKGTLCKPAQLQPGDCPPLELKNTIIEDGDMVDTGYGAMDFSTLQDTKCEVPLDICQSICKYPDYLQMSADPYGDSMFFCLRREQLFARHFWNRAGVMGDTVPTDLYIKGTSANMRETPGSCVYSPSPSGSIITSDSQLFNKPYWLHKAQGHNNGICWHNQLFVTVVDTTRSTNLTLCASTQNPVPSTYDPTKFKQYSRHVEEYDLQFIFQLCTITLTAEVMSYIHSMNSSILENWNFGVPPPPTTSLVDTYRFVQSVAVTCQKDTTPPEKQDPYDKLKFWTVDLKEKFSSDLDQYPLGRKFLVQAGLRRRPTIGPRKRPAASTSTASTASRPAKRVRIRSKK

B1: HPV 59编号为30单克隆抗体 (antibody, V domains shown)
VH: QIQLVQSGPELKKPGETVKISCKASGYTFTDYSMHWVKQAPGKGLKWMGWINTETGEPTYADDFKGRFAFSLETSASTAYLQINNLKIEDTATYFCTRDGYVWYFDVWGAGTTVTVSS
VL: QIVLSQSPAILSASPGEKVTMTCRASSSVNYMHWYQQKPGSSPKPWIYATSNLASGVPARFSGSGSGTSYSLTISRVEAEDAATYYCQQWSSNPIFTFGSGTKLEIK
notes: Mouse hybridoma antibody tested as cell supernatant; also called 59H30
Turning to B1, the binding result in the experiment with HPV6L1, in the experiment with HPV31L1, in the experiment with HPV56L1, with HPV11L1 and in the experiment with HPV45L1 was “no binding (tested: 原液40μg/ml; 细胞上清1:100)” throughout.
